Measured values: paper PMC5758831, “A proline deletion in IFNAR1 impairs IFN-signaling and underlies increased resistance to tuberculosis in humans” (Nature Communications, 2018)

Key:
[1] = target: T1, hIFNAR1-extracellular domain (ECD) (human, UniProt P17181 28-424); experiment: SPR; ProteOn XPR36, HTG chip; His-tagged hIFNAR1-ECD or hIFNAR1-ECD-Del (25 µg/ml in TBS) immobilised on the nickel activated chip; ReBif (hIFN-β) in TBS as analyte at various concentrations; TBS running buffer; Langmuir binding model; in the absence of IFNAR2; details: both partners purified
T1 construct: interferon alpha and beta receptor subunit 1 (IFNAR1), human, extracellular domain, amino acids 28-424 of hIFNAR1 (GenBank CAA42992.1); The cloning paragraph says N-terminal 6xHis tag (modified pFastBac-1); the SPR paragraph says capture by C-terminal His-tags; The reverse primer encodes ...PGNTSK-stop; also called hIFNAR1-ECD; WT IFNAR1-ECD; not shown: 6xHis, N-terminal, kept
T1 sequence (looked up): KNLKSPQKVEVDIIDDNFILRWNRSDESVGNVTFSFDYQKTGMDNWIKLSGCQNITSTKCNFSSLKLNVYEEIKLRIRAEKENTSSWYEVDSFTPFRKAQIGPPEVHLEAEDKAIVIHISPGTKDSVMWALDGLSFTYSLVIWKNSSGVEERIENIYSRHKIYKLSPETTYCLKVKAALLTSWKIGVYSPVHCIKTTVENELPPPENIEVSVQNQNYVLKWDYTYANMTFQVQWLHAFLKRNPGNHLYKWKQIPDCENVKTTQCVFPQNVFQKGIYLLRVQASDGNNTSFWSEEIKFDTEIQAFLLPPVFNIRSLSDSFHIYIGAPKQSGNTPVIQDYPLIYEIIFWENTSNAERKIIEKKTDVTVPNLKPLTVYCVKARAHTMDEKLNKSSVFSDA

[2] = target: T2, hIFNAR1-ECD-Del (extracellular domain of human IFNAR1 with the Pro335 deletion) (human, UniProt P17181 28-424, delete P335); experiment: as above; details: both partners purified
T2 construct: Naturally occurring variant, made by site-directed mutagenesis of hIFNAR1-ECD; N-terminal 6xHis by the cloning paragraph, C-terminal His-tag by the SPR paragraph; also called IFNAR1Del; not shown: 6xHis, N-terminal, kept
T2 sequence (looked up): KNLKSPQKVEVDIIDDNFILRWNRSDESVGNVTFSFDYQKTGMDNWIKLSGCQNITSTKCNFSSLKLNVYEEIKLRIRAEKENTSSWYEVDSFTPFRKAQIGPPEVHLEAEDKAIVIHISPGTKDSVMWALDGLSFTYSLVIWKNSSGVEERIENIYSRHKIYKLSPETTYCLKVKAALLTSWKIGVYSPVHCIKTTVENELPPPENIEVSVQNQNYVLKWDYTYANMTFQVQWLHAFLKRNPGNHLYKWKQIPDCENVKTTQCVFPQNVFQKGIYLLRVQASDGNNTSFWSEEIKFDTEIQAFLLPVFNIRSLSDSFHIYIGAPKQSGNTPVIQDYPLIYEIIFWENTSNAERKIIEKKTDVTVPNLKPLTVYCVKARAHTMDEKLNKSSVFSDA

B1: human IFN-β (ReBif) (ligand, UniProt P01574 22-187, looked up)
chain: MSYNLLGFLQRSSNFQCQKLLWQLNGRLEYCLKDRMNFDIPEEIKQLQQFQKEDAALTIYEMLQNIFAIFRQDSSSTGWNETIVENLLANVYHQINHLKTVLEEKLEKEDFTRGKLMSSLHLKRYYGRILHYLKAKEYSHCAWTIVRVEILRNFYFINRLTGYLRN
notes: interferon beta, human; the drug product ReBif; also called hIFN-β; source: ReBif (hIFN-β), dialyzed into TBS
[1]
  Kd: 15.8 nM
[2]
  Kd: 28.1 nM
